Residue numbers refer to the chain shown, from its start.
B1: 4E10_T117 (designed binder)
chain: HHHHHHNAMQGIHFRRHYVRHLPKEVSQNDIIKALASPLINDGMVVSDFADHVITREQNFPTGLPVEPVGVAIPHTDSKYVRQNAISVGILAEPVNFEDAGGEPDPVPVRVVFMLALGNWFDITNVLWWIMDVIQDEDFMQQLLVMNDDEIYQSIYTRISE
B2: 10E8_T117v2-1 (designed binder)
chain: NAMQGIHFRRHYVRHLPKEVSQNDIIKALASPLINDGMVVSDFADHVITREQNFPTGLPVEPVGVAIPHTDSKYVRQNAISVGILAEPVNFEDAGGEPDPVPVRVVFMLALGNWFDITNVLWWIKAVIQDEDFMQQLLVMNDDEIYQSIYTRISELEHHHHHH
B3: 10E8_T298v2 (designed binder)
chain: GSEVSQNDIIKALASPLINDGMVVSDFADHVITREQNAPTGLPVEPVGVAIPHTDSKYVRQNAISVGILAEPVNFEDAGGEPDPVPVRVVFMLALGNWFDITNVLWWIKAVIQDADFMQQLLRMNDDEIYQSIYTRISEAAGMAGIHFRRHYVRHLGLEHHHHHH
B4: 4E10_T298 (designed binder)
chain: GHHHHHHGSEVSQNDIIKALASPLINDGMVVSDFADHVITREQNAPTGLPVEPVGVAIPHTDSKYVRQNAISVGILAEPVNFEDAGGEPDPVPVRVVFMLALGNWFDITNVLWWIMDVIQDADFMQQLLVMNDDEIYQSIYTRISEAAGMAGIHFRRHYVRHLPLEHHHHHH
B5: 10E8_T117v2-2 (designed binder)
chain: B2 chain with D116S, N119K
B6: 10E8_T117v2-4 (designed binder)
chain: B2 chain with T118S, N119R
B7: 10E8_T117v2-3 (designed binder)
chain: B2 chain with N113S, D116N, T118S, K125R
B8: 10E8_T117v2-1_RSF1 (designed binder)
chain: NAMAGIVFRKHYVRHLGKTVTQNEIIRALAAPLISDGMVVKDFADHVIKREEQNPTGLPVQPVGVAIPHTDSKYVYYNAISVGILQEPVAFEDAGGDGRPVPVRVVFMLALGNWFDITNVLWWIKAVIQDDEFMKRLLYMTDDKIYESIRKRIYDLE
B9: 10E8_T117v2-1_g28_g91012 (designed binder)
chain: NAMQGIHFRRHYVRHLPKNVSQNDIIKALASPLINDGMVVSDFADHVITRENNSPTGLPVEPVGVAIPHTDSKYVNQSAISVGILAEPVNFEDANGTPDPVPVRVVFMLALGNWFDITNVLWWIKAVIQDEDFMQQLLNMSDDEIYQSIYTRISE
modifications: added N-linked glycosylation sites (glycan-masked)
B10: 10E8_T93v2RT12-1 (designed binder)
chain: GKADEVREKARRRMEQAVEEFKRRLRQFEEKVKQKEPRDDEINRWIDIVKKKADEAKKRVEEVGDQAADEAAQLGNDPNVNWFDITNVLWDVKKLTEKAINDIDDALKKMKDWLESGLEHHHHHH
B11: 10E8_T93v2RT12-3 (designed binder)
chain: B10 chain with N81S, D84N, T86S, K93R
B12: 10E8_T117v2-5 (designed binder)
chain: B2 chain with N119Q
B13: 10E8_T93v2RT12-5 (designed binder)
chain: B10 chain with N87Q
B14: 10E8_T93v2RT12-4 (designed binder)
chain: B10 chain with T86S, N87R

Biological target: 10E8 antibody
Assay: SPR; reference 10E8_T117v2

Binder	factor weaker than the corresponding 10E8 scaffold [fold]
B1	30

Biological target: germline 10E8 (predicted germline precursor to 10E8)
Assay: SPR

Binder	Kd [nM]
B2	30000
B3	105000

Biological target: 10E8 antibody
Assay: SPR

Binder	Kd [nM]
B1	3
B4	3

Biological target: 10E8 antibody
Assay: SPR, antibody on the sensor

Binder	Kd [nM]
B2	0.091
B3	0.172

Biological target: 10E8 antibody
Assay: SPR; reference 10E8_T298v2

Binder	factor weaker than the corresponding 10E8 scaffold [fold]
B4	30

Biological target: 4E10 antibody
Assay: SPR

Binder	Kd [nM]
B2	0.168
B5	0.0538
B6	3.9
B7	0.526
B8	0.1
B9	0.49
B10	0.018
B11	0.58

Biological target: germline 10E8 (predicted germline precursor to 10E8)
Assay: SPR
Remark: another data set of the same source

Binder	Kd [nM]
B2	6000
B6	8000
B7	8000
B10	290000 to 720000

Biological target: 10E8 antibody
Assay: SPR
Remark: another data set of the same source

Binder	Kd [nM]
B2	0.082
B5	1.3
B12	0.155
B6	0.59
B7	0.925
B8	0.05
B9	0.18
B10	0.04
B13	0.022
B14	2.7
B11	0.11

Biological target: germline 4E10
Assay: SPR

Binder	Kd [nM]
B2	0.187
B6	3.2
B8	0.1
B9	0.5

— patent US9707290
